Tests used:
[1] = target: T1, recombinant EGFR corresponding to the extracellular domain (residue 25-645) (human, UniProt P00533 25-645); test: SPR; Biacore T200; DCD immobilised on CM5 chip; EGFR extracellular domain applied as analyte at 5 concentrations; KD by Biacore evaluation software 2.0 supposing a 1:1 binding ratio; details: both partners purified
T1 construct: epidermal growth factor receptor (EGFR), human, extracellular domain, residues 25-645; also called extracellular domain of human EGFR; epidermal growth factor receptor; source: bought: RayBiotech

[2] = target: the molecule itself; test: SDS-PAGE with and without DTT; purified recombinant His-tagged protein run on SDS-PAGE in the presence or absence of the reducing agent dithiothreitol; shows disulfide-linked (covalent) dimers only
[3] = target: T1, recombinant EGFR corresponding to the …; test: SPR; Nicoya Lifesciences OpenSPR (gold nanoparticles); DCD or DCD-C34S with 6×His tag immobilised on NTA sensor chip; EGFR extracellular domain applied as analyte at three concentrations; KD by Trace Drawer Kinetic Data Analysis v.1.6.1; details: both partners purified

B1: recombinant human dermcidin (full-length DCD precursor, residue 20-110) with N-terminal 6×His tag (natural protein, UniProt P81605 20-110, looked up)
chain: YDPEAASAPGSGNPCHEASAAQKENAGEDPGLARQAPKPRKQRSSLLEKGLDGAKKAVGGLGKLGKDAVEDLESVGKGAVHDVKDVLDSVL
notes: dermcidin (DCD), human, residues 20-110, without the N-terminal 19-aa signal leader peptide (residue 1-19); one sentence of the methods says residue 20-100; Without a reducing agent the preparation is a mixture of monomers and disulfide-linked dimers (through Cys34); results and legends print 20-110; also called recombinant DCD; source: E. coli BL21 (DE3) pLysS, purified; Triton X-114 extraction …
With B1 the Kd [1] was 58.8 nM, the “stoichiometry N” value [2] was 2 and the Kd [3] was 58.1 nM.

B2: DCD-C34S analog (recombinant human dermcidin residue 20-110 with a Cys to Ser substitution at residue 34, N-terminal 6×His tag) (natural protein, UniProt P81605 20-110, looked up)
chain: YDPEAASAPGSGNPSHEASAAQKENAGEDPGLARQAPKPRKQRSSLLEKGLDGAKKAVGGLGKLGKDAVEDLESVGKGAVHDVKDVLDSVL
notes: dermcidin (DCD), human, residues 20-110 without the signal leader peptide, with C34S; Made by similar procedures as m1; source: E. coli BL21 (DE3) pLysS, purified to homogeneity; Triton X-114 extraction to remove endotoxins; not shown: His6, N-terminal, kept
B2 was tested, and the Kd [3] was 57.9 nM.
